The record followed here is article PMC7877763, “Aberrant binding of mutant HSP47 affects posttranslational modification of type I collagen and leads to osteogenesis imperfecta” (PLoS Genetics, 2021).

In assay [1] the target is T1, full length pepsinized type I collagen from mouse tail tendon (mouse, UniProt P11087 152-1207; Q01149 86-1125).
T1 construct: collagen alpha-1(I) chain, mouse; collagen alpha-2(I) chain, mouse; Chain composition (two alpha1(I), one alpha2(I)) as the introduction tells of type I collagen in general; source: purified from mouse tail tendon (pepsinized); copies: 2 + 1
In words: SPR; BIAcore X; type I collagen from mouse tail tendon immobilised on a CM5 chip by amide coupling (about 6,000 RU); HSP47 flowed over; 20°C; HBS-P (10 mM Hepes pH 7.4, 150 mM NaCl, 0.005% Surfactant P20); 10 ul/min; Langmuir binding model. Particulars: both partners purified. For orientation: Surface plasmon resonance follows binding to a sensor surface in real time, without labels.

Assay [2] concerns the target T2, type I collagen from rat tail (rat, UniProt P02454 152-1207; P02466 86-1125).
T2 construct: collagen alpha-1(I) chain, rat; collagen alpha-2(I) chain, rat; Chain composition as the introduction tells of type I collagen in general; also called full length type I collagen; source: bought: BD Bioscience; copies: 2 + 1
In words: ELISA; ELISA-like binding assay; type I collagen from rat tail coated at 10 ug/mL on MaxiSorp plates (coating of GPR-foldon not described); His-tagged HSP47 at 1.2 to 5,000 nM in solution; detected with HRP-coupled anti-His antibody; four-parameter logistic fit. To be noted: both partners purified. For orientation: In an ELISA, binding on a coated surface is turned into a signal by an enzyme label.

T1 sequence (P11087 152-1207, chain 1 of 2): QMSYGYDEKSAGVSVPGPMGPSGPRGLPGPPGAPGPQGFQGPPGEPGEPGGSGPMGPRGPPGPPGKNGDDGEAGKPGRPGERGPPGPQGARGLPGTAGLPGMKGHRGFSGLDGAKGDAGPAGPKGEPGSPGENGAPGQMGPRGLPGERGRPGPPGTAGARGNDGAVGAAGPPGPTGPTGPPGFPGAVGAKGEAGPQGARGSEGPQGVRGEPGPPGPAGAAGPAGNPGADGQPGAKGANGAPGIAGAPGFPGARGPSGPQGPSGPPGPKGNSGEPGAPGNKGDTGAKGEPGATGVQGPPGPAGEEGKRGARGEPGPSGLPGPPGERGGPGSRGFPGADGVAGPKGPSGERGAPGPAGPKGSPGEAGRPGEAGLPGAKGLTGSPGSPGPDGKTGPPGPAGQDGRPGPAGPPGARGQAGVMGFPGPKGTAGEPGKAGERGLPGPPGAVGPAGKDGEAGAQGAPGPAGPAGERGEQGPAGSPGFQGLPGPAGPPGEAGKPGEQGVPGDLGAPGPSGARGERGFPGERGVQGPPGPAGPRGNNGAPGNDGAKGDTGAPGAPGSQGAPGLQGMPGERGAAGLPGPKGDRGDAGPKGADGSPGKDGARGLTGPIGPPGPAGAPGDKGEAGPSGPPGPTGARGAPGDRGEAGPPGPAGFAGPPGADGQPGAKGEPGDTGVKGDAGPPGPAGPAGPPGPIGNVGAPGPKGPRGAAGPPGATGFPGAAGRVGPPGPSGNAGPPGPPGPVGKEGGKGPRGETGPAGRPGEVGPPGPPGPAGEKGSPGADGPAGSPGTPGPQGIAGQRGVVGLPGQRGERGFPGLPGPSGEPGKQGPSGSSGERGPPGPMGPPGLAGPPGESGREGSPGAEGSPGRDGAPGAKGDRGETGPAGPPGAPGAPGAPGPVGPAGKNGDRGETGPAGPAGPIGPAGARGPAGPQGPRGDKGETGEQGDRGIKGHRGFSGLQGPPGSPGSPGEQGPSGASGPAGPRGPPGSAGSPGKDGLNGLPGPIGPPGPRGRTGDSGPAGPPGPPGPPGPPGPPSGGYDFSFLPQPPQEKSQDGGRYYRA
T1 sequence (Q01149 86-1125, chain 2 of 2): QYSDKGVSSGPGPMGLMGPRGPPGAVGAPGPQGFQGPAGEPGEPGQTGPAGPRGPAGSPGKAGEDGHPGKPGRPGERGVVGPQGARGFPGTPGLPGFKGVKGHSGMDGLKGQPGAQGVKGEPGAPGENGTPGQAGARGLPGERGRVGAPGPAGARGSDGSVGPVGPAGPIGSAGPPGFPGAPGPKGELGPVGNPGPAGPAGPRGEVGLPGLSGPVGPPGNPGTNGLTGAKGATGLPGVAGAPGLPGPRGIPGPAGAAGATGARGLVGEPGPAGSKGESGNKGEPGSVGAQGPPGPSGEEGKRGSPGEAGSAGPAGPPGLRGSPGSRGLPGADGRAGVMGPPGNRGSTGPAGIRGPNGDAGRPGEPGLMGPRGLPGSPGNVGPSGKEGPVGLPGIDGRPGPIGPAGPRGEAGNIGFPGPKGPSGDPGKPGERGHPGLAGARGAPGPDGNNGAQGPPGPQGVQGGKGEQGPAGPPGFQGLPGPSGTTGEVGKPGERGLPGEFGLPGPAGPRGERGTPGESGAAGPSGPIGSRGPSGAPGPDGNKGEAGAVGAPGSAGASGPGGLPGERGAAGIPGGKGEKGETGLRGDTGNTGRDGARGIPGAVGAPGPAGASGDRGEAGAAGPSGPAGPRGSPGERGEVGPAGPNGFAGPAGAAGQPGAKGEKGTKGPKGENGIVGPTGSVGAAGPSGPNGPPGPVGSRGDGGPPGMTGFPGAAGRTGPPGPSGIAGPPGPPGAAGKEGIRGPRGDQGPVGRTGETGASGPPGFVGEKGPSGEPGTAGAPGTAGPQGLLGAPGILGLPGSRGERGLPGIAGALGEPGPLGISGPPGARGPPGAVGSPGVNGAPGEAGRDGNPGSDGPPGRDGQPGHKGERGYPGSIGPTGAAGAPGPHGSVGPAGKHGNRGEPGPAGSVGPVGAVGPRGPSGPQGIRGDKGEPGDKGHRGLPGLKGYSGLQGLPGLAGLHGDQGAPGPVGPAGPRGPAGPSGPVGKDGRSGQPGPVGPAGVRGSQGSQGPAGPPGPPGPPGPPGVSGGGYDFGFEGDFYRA
T2 sequence (P02454 152-1207, chain 1 of 2): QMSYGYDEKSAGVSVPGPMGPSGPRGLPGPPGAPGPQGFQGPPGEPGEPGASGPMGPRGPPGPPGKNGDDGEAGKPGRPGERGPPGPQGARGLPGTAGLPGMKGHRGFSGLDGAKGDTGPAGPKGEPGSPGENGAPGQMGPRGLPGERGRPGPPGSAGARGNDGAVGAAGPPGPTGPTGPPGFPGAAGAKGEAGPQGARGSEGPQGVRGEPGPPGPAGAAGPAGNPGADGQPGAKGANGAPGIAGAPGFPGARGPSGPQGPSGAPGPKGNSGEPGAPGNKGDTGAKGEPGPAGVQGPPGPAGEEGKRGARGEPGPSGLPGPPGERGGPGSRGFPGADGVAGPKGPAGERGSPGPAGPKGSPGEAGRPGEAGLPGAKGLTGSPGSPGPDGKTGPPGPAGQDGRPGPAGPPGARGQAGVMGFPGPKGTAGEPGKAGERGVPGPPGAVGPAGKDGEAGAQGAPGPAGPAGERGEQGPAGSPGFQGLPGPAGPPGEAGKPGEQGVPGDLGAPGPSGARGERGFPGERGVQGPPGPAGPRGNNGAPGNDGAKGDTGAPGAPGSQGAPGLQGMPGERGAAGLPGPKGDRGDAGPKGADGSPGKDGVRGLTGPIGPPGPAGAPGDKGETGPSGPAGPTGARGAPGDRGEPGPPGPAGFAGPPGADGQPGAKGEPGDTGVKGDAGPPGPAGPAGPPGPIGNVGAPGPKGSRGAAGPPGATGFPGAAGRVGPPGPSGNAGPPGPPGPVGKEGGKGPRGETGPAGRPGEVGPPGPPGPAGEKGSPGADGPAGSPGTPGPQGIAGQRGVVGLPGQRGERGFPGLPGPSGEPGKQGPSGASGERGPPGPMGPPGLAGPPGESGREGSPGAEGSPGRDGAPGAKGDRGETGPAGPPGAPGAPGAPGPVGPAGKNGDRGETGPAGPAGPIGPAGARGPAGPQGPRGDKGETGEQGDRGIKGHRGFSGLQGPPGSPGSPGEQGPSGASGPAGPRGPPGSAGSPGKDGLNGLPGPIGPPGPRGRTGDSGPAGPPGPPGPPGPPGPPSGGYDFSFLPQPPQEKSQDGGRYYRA
T2 sequence (P02466 86-1125, chain 2 of 2): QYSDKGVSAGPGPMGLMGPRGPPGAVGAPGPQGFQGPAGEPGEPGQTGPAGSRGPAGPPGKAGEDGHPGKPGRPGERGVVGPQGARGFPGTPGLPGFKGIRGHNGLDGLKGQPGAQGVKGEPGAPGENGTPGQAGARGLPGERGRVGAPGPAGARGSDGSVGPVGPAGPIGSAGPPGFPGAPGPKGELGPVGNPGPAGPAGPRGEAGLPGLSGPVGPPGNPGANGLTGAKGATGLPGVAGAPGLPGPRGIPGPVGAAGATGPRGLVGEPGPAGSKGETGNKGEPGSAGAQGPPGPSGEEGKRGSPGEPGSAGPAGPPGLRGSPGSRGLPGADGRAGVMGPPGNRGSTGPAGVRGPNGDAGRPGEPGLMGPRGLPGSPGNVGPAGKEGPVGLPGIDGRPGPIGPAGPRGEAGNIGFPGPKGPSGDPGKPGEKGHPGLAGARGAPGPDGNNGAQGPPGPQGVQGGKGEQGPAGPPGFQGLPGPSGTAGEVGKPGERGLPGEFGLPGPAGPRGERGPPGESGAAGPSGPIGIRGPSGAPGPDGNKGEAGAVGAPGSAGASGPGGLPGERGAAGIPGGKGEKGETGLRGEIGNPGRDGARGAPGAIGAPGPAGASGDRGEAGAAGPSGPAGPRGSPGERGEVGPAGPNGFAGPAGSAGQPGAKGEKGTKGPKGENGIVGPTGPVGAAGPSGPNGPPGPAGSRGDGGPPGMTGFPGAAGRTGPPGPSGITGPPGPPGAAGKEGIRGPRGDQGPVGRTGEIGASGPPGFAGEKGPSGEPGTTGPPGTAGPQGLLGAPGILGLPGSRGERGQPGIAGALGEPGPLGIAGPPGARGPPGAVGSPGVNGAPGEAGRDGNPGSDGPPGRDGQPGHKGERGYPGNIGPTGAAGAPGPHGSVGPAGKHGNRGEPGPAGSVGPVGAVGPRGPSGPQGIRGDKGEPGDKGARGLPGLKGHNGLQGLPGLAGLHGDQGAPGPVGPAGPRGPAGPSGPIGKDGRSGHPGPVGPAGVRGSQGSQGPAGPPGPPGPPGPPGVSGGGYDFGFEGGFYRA

B1: recombinant wild-type canine HSP47 (natural protein, UniProt C7C419 36-418, looked up)
chain: LSPKAATLAERSAGLAFSLYQAMAKDQAVENILLSPVVVASSLGLVSLGGKATTASQAKAVLSAEQLRDEEVHAGLGELLRSLSNSTARNVTWKLGSRLYGPSSVSFAEDFVRSSKQHYNCEHSKINFRDKRSALQSINEWAAQTTDGKLPEVTKDVERTDGALLVNAMFFKPHWDEKFHHKMVDNRGFMVTRSYTVGVTMMHRTGLYNYYDDEKEKLQIVEMPLAHKLSSLIILMPHHVEPLERLEKLLTKEQLKIWMGKMQKKAVAISLPKGVVEVTHDLQKHLAGLGLTEAIDKNKADLSRMSGKKDLYLASVFHATAFEWDTEGNPFDQDIYGREELRSPKLFYADHPFIFLVRDTQSGSLLFIGRLVRPKGDKMRDEL
notes: HSP47 (serpin H1), canine, residues 36-418 printed as 36LSP; RDEL418, in a pJExpress411 vector; The methods describe a strep-tagged construct; the ELISA methods speak of His-tagged HSP47 proteins detected by an anti-His antibody; also called wild-type HSP47; WT HSP47; source: E. coli BL21 (DE3), purified (Streptactin column, Superdex 200 SEC)
A word on the Kd: it is the concentration at which binding is half-saturated. A low value points to tighter binding. Regarding B1, the Kd in assay [1] came to 60 nM; in assay [2], 139 nM.

B2: recombinant canine HSP47-R222S (natural protein, UniProt C7C419 36-418, looked up)
chain: LSPKAATLAERSAGLAFSLYQAMAKDQAVENILLSPVVVASSLGLVSLGGKATTASQAKAVLSAEQLRDEEVHAGLGELLRSLSNSTARNVTWKLGSRLYGPSSVSFAEDFVRSSKQHYNCEHSKINFRDKRSALQSINEWAAQTTDGKLPEVTKDVERTDGALLVNAMFFKPHWDEKFHHKMVDNSGFMVTRSYTVGVTMMHRTGLYNYYDDEKEKLQIVEMPLAHKLSSLIILMPHHVEPLERLEKLLTKEQLKIWMGKMQKKAVAISLPKGVVEVTHDLQKHLAGLGLTEAIDKNKADLSRMSGKKDLYLASVFHATAFEWDTEGNPFDQDIYGREELRSPKLFYADHPFIFLVRDTQSGSLLFIGRLVRPKGDKMRDEL
notes: HSP47 (serpin H1), canine, residues 36-418 (36LSP... RDEL418) with R222S introduced by Quikchange mutagenesis; The substitution is the one found in the human patient, placed in the canine protein; Strep tag by the purification methods, His tag by the ELISA methods; also called R222S HSP47; source: E. coli BL21 (DE3), purified as wild-type HSP47 (Streptactin column, Superdex 200 SEC)
Turning to B2, the results for the Kd in assay [1] and in assay [2] were 640 nM and around 3600 nM, respectively.
